Experiments:
FAK = assay: FN- or EGF-dependent FAK phosphorylation (WB); assay type: cell-based
Text: For WB analysis, cells were collected and lysed with IP lysis buffer described above. After boiled with SDS laemmli buffer, the samples were resolved with SDS-PAGE gel and immunoblotted with standard protocols.
FN is the major ligand for integrin α5β1 and αvβ1, and triggers integrin/FAK signal pathway after binding. FN was employed to evaluate the effects of Tinagl1 on the integrin/FAK pathway. […] Likewise, the activation of FAK by FN was attenuated in the cells overexpressing Tinagl1.

[1] = biological target: T1, mutant integrin β1 subunit (β1-M) (Homo sapiens, UniProt P05556, DEL130-240); assay: IP of Tinagl1-HA with mutant integrin β1 subunit; assay type: binding; details: HEK293T cells
T1 construct: host or cells: HEK293T

[2] = test system: FN interaction with integrin subunits β1, α5, and αv; assay: Competition IP between Tinagl1, FN and integrin subunits; assay type: binding
EGFR = EGFR (Homo sapiens, UniProt P00533); assay: Co-immunoprecipitation of Tinagl1 / Tinagl1 mutants with EGFR; assay type: binding; details: LM2 cells with Tinagl1-HA stably expressed
Description: (§1) The functional domains of the Tinagl1 protein were mapped against EGFR, Integrin β1, and Integrin α5, and the results can be seen in Table 1, below. Specifically, it can be seen that the signal peptide (11) and Somatomedin B domain (12) are required to interact with EGFR, Integrin, and Integrin.
(§2) Immunoprecipitation (IP) and western blotting (WB) analysis. For an IP experiment, cells were collected in 1.5 ml EP tube when they reached to 100% confluency in 10 or 15 cm dish as indicated. 1 ml of IP lysis buffer (20 mM Tris pH7.4, 0.15 M NaCl, 1 mM EDTA, 1 mM EGTA, 1% Tx-100) with complete protease inhibitor cocktail (Roche, 14493900) was added and put on ice for 20 min. Meanwhile, culture media was 100× concentrated and mixed with the cell lysates. The samples were centrifuged, 100 μl of the supernatant was transferred to a new tube as input, and the rest was incubated with 2 μg of IgG, anti-HA, anti-Myc, anti-Integrin subunit β1, anti-Integrin subunit α5 or anti-EGFR (as indicated in each experiment) overnight at 4° C. (recombinant proteins may be added at this step as indicated in each experiment). 30 μL of protein A/G agarose beads (Santa Cruz, sc-2003) was then added in each sample for another 2 hours at 4° C. the next day. The beads were then washed for 5 times with IP lysis buffer. […] The IP samples were washed with PBS and analyzed with WB. […]

EGF = biological target: T2, EGF (Homo sapiens, UniProt P01133); assay: Co-immunoprecipitation of Tinagl1-HA with recombinant EGF; assay type: binding; details: 5 μg r-EGF added into lysate
T2 construct: 5 μg of recombinant EGF (r-EGF) was added into the lysate
Description: FIG. 13A is an image of IP and WB assays where EK293T cells expressing Tinagl1-HA were lysed and 5 μg of recombinant EGF (r-EGF) was added into the lysate, which was then subjected to the assays.
Tinagl1 inhibits EGFR and integrin/FAK signaling pathways with distinct mechanisms. The interaction between EGFR and EGF causes conformational changes in EGFR, leading to EGFR dimerization, phosphorylation, and activation. Previous studies identified an EGFR antagonist, MIF, which competes with EGF for binding to EGFR and subsequently blocks its activation. Whether Tinagl1 inhibits EGFR activation in a similar manner was tested. […] Whether Tinagl1 and EGF compete with each other to interact with EGFR was tested. […] As a positive control, r-Tinagl1 competed with expressed Tinagl1-HA to interact with EGFR.

Integrin β1 = Integrin β1 (Homo sapiens, UniProt P05556); assay: Co-immunoprecipitation of Tinagl1 / Tinagl1 mutants with integrin β1 subunit; assay type: binding; details: LM2 cells with Tinagl1-HA stably expressed
Description: as §1, §2

Integrin α5 = Integrin α5 (Homo sapiens, UniProt P05556+P08648); assay: Co-immunoprecipitation of Tinagl1 / Tinagl1 mutants with integrin α5 subunit; assay type: binding; details: LM2 cells expressing Tinagl1-HA
Description: as §1, §2

integrin av subunit = biological target: T3, integrin av subunit (Homo sapiens, UniProt P05556+P06756); assay: Co-immunoprecipitation of Tinagl1 with integrin av subunit; assay type: binding; details: LM2 cells expressing Tinagl1-HA
T3 construct: endogenous in cells; host or cells: LM2 cells stably expressing Tinagl1-HA
Description: FIGS. 9A and 9B FIGS. 8E and 8F are images of WB analyses where LM2 cells expressing Tinagl1-HA stably were lysed and IP with IgG or anti-HA antibodies, then the IP samples were subjected to WB analysis with indicated antibodies to detect the interaction with integrin α5 subunit (9A) and integrin av subunit (9B).
as §2

FN = FN (Homo sapiens, UniProt P02751); assay: IP of Tinagl1-HA with FN; assay type: binding; details: IP-Mass, IP/WB
Description: FIG. 15B is an image of WB analyses where 5 μg of FN was added into the lysate of HEK293T cells expressing Tinagl1-HA, then the lysate was immunoprecipitated with indicated antibodies, followed by WB analysis.

FN interaction with integrin subunits β1, α5, and αv, sequence (as listed by the source): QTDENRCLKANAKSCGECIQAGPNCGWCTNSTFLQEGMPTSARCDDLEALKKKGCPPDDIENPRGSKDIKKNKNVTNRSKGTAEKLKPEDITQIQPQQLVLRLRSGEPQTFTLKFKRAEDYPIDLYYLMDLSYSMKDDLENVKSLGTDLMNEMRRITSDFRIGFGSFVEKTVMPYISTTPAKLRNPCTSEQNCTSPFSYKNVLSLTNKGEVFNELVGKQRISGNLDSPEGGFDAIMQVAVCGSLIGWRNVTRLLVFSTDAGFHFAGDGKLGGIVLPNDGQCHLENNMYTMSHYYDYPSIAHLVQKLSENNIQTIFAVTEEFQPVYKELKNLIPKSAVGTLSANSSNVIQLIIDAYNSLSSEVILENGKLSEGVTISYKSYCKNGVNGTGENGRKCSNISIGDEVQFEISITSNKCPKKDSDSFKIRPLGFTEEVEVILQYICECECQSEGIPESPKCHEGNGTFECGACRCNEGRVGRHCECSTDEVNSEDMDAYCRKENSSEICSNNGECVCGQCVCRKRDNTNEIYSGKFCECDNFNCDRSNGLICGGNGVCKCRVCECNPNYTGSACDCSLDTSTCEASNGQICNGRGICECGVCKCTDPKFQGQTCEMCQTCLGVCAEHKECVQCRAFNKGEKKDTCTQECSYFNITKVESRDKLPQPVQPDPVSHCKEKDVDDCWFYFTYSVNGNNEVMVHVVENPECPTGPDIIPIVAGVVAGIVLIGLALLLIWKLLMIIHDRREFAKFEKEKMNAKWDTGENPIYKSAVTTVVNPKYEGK
T1 sequence (P05556 with tags, fused parts or gaps DEL130-240): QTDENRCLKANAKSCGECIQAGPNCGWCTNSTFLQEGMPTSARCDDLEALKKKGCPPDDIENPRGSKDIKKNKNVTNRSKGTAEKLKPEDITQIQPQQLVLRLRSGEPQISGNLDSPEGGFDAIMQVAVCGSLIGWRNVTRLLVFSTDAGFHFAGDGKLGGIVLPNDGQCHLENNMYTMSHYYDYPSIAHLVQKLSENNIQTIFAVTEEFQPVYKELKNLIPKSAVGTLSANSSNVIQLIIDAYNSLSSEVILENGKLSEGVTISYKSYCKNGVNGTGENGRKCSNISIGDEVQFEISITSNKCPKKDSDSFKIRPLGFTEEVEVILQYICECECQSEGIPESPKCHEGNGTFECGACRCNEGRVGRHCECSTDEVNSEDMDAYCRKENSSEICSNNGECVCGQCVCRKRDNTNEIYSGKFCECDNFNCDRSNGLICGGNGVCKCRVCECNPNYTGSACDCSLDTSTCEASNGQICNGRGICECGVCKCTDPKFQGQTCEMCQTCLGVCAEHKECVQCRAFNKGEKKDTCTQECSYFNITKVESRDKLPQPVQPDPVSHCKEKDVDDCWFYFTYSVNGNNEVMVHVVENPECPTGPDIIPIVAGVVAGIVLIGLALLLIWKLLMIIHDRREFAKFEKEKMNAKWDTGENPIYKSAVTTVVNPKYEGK
FN, sequence (P02751 32-2477): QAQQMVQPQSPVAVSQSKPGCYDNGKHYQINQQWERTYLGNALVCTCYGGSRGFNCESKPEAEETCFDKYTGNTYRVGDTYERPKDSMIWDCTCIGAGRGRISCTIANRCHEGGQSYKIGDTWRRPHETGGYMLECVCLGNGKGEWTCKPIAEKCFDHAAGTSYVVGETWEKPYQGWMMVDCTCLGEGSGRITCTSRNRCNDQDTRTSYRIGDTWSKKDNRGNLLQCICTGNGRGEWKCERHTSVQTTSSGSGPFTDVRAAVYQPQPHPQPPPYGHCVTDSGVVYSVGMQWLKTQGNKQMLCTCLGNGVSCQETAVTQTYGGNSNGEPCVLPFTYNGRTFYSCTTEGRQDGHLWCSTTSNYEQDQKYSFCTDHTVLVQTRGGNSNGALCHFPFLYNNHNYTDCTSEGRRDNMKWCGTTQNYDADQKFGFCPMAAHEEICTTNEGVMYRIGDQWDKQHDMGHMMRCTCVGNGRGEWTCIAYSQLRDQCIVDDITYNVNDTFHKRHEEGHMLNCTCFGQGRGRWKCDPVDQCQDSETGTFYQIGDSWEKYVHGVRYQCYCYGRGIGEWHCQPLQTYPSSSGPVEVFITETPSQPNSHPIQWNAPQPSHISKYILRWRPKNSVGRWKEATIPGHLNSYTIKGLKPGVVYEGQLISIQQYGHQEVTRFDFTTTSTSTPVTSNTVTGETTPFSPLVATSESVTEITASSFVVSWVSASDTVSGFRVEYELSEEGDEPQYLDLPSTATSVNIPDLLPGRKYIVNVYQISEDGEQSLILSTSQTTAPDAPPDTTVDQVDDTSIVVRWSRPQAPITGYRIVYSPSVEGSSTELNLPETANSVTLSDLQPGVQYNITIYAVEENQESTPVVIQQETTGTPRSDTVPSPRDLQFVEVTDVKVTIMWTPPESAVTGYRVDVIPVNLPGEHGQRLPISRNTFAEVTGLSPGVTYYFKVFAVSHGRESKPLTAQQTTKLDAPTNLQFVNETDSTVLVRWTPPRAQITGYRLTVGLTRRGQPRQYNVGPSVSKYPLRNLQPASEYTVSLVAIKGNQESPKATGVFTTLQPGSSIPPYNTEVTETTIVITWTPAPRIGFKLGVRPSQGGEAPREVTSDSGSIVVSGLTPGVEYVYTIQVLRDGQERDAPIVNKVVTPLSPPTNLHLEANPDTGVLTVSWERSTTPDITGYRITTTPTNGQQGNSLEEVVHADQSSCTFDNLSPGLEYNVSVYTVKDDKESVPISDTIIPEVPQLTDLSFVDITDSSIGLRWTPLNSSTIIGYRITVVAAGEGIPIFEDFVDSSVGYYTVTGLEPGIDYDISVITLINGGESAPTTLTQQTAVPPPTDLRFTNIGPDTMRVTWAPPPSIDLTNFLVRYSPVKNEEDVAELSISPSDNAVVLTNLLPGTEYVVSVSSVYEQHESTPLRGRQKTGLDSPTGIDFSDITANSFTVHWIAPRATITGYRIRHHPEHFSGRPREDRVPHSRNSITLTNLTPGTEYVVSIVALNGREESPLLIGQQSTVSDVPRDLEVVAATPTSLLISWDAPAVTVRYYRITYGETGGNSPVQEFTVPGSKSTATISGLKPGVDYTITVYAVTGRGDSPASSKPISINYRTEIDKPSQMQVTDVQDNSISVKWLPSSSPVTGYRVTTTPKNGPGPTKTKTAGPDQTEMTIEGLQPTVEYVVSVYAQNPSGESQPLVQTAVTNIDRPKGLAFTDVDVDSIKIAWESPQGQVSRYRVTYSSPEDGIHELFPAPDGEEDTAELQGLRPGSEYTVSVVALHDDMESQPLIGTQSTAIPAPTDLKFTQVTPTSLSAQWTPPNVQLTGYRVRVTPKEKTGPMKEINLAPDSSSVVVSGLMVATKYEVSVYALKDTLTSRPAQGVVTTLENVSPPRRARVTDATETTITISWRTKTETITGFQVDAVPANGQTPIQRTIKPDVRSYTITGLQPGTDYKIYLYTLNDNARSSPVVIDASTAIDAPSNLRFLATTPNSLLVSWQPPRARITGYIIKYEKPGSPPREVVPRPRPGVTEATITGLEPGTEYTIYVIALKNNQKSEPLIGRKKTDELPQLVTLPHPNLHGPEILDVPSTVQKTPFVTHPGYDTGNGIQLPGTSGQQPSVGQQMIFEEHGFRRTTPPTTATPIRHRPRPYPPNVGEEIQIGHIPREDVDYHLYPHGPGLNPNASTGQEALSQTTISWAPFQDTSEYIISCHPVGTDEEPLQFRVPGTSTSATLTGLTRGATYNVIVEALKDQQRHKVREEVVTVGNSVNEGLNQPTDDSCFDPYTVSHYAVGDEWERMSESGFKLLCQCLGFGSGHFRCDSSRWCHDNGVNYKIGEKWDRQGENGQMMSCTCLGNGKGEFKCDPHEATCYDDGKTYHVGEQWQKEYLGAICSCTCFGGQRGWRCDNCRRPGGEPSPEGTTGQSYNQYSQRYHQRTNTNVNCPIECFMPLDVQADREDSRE
Integrin α5, sequence (P08648 42-894 limits assumed): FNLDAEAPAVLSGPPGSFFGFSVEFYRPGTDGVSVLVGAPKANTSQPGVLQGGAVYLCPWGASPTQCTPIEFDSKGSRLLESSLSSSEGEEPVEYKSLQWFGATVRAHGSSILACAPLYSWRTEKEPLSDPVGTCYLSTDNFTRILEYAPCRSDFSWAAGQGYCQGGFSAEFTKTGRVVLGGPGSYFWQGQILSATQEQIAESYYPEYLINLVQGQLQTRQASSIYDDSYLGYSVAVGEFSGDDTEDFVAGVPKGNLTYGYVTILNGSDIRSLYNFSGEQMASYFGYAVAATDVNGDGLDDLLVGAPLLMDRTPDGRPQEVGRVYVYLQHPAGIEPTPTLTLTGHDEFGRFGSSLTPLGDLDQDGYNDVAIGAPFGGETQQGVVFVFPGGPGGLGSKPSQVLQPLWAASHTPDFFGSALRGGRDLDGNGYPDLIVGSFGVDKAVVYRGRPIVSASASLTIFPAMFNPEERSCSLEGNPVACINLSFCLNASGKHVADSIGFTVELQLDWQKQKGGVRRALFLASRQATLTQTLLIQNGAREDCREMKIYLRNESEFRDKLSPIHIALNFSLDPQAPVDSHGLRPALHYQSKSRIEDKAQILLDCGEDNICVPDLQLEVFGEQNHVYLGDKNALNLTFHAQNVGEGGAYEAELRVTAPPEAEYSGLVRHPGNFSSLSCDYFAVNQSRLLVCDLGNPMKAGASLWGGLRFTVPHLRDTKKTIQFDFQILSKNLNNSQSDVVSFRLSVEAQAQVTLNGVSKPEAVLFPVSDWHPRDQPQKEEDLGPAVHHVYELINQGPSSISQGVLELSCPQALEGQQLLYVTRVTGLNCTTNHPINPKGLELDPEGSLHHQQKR
Integrin α5, sequence (P08648 895-1049 limits assumed): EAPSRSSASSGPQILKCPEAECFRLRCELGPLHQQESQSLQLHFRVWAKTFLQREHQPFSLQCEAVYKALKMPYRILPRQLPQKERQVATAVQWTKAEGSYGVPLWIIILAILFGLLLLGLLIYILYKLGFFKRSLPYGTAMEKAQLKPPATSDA
Integrin α5, sequence (P05556 21-798): as the sequence (as listed by the source) above
Integrin β1, sequence (P05556 21-798): as the sequence (as listed by the source) above
Integrin β1, sequence (P08648 42-894 partner limits assumed): as the sequence (P08648 42-894 limits assumed) above
Integrin β1, sequence (P08648 895-1049 partner limits assumed): as the sequence (P08648 895-1049 limits assumed) above

B1: Tinagl1: Tubulointerstitial nephritis antigen like 1, secreted extracellular protein; in IP experiments expressed with C-terminal HA tag (protein, listed as Homo sapiens)
chain: MWRCPLGLLLLLPLAGHLALGAQQGRGRRELAPGLHLRGIRDAGGRYCQEQDLCCRGRADDCALPYLGAICYCDLFCNRTVSDCCPDFWDFCLGVPPPFPPIQGCMHGGRIYPVLGTYWDNCNRCTCQENRQWQCDQEPCLVDPDMIKAINQGNYGWQAGNHSAFWGMTLDEGIRYRLGTIRPSSSVMNMHEIYTVLNPGEVLPTAFEASEKWPNLIHEPLDQGNCAGSWAFSTAAVASDRVSIHSLGHMTPVLSPQNLLSCDTHQQQGCRGGRLDGAWWFLRRRGVVSDHCYPFSGRERDEAGPAPPCMMHSRAMGRGKRQATAHCPNSYVNNNDIYQVTPVYRLGSNDKEIMKELMENGPVQALMEVHEDFFLYKGGIYSHTPVSLGRPERYRRHGTHSVKITGWGEETLPDGRTLKYWTAANSWGPAWGERGHFRIVRGVNECDIESFVLGVWGRVGMEDMGHH
modifications: C-terminal HA tag in IP
notes: Tubulointerstitial nephritis antigen like 1, secreted extracellular protein; in IP experiments expressed with C-terminal HA tag
EGF-induced FAK phosphorylation (Tyr925) (FAK): blocks this specific effect of EGF on FAK activation | interaction with mutant β1 subunit (deletion of aa 130-240) [1]: cannot interact | interaction of subunits α5 or av with FN [2]: did not compete | interaction of FN with integrin β1 subunit ([2]; tested at 1, 2.5, and 5 μg): competitively reduced | interaction with EGFR (co-IP) (EGFR): confirmed the interaction | interaction between Tinagl1 and EGF (EGF): failed to detect any interaction | interaction with integrin β1 subunit (co-IP) (Integrin β1): confirmed the interaction | interaction with integrin α5 subunit (co-IP) (Integrin α5): strongly interacted | interaction with integrin av subunit (co-IP) (integrin av subunit): strongly interacted | interaction with FN (FN): interacted with FN

From patent US20210379147A1, “METHOD AND SYSTEM FOR TREATING CANCER UTILIZING TINAGL1” (The Trustees of Princeton University, priority 2018, published 2021)
